Reference: patent US20230279107A1 (ZHEJIANG RUIJIAMEI BIOTECH, published 2023)

Target: T1, CD19 expressed on Hela cells (stable cell line Hela-CD19) (human, UniProt P15391 20-556)
T1 sequence (looked up): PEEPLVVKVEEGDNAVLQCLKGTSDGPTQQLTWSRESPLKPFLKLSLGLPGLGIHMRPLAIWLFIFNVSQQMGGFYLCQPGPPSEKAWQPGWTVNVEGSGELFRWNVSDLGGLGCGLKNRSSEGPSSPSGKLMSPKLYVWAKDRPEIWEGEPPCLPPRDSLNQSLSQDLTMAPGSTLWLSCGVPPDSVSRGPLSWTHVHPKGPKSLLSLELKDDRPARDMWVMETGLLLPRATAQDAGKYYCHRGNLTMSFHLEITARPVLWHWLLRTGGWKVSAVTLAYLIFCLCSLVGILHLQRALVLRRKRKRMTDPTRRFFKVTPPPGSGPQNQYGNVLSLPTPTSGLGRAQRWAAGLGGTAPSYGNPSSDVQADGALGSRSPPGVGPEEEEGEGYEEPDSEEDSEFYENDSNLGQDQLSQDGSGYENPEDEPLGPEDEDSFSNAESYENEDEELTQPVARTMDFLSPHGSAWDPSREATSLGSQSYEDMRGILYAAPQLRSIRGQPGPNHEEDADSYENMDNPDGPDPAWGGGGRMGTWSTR
Assay: cell-based or functional assay

B1: Humanized CD19-4-1BB-CD3-CAR protein (CD8 leader sequence-CD19 scFv (VL-Linker-VH)-CD8 hinge-CD8 TM-41BB-CD3-zeta), expressed on DNT cells (other)
chain: DIQMTQSPSSLSASVGDRVTITCRASQDISKYLNWYQQKPGKAPKLLIYHTSRLHSGVPSRFSGSGSGTDFTLTISSLQPEDFATYYCQQGNTLPYTFGGGTKVEIKGSTSGSGKPGSGEGSTKGQVQLQESGPGLVKPSETLSLTCTVSGGSLPDYGVSWIRQPPGKGLEWIGVIWGSETTYYNSALKSRVTISVDTSKNQFSLKLSSVTAADTAVYYCAKHYYYGGSYAMDYWGQGTLVTVSSTTTPAPRPPTPAPTIASQPLSLRPEACRPAAGGAVHTRGLDFACDIYIWAPLAGTCGVLLLSLVITLYCKRGRKKLLYIFKQPFMRPVQTTQEEDGCSCRFPEEEEGGCELRVKFSRSADAPAYKQGQNQLYNELNLGRREEYDVLDKRRGRDPEMGGKPRRKNPQEGLYNELQKDKMAEAYSEIGMKGERRRGKGHDGLYQGLSTATKDTYDALHMQALPPR
B1 was tested, and the “specific killing of Hela-CD19 by CAR19-DNT cells on day 8 of culture (RTCA, effector-target ratio 2:1, 18 h)” value was 98.5% and the “specific killing of Hela-CD19 by CAR19-DNT cells on day 13 of culture (RTCA, effector-target ratio 2:1, 18 h)” value was 98.1%.
